Data as given in the nanobody polyreactivity screen of Harvey et al. (2022).

Assay: yeast display, Sf9 membrane polyspecificity reagent, FACS + sequencing; frameworks hold sequencing errors
Procedure, shortened: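 Polyreactivity labels are assigned by the sorting gate from which each nanobody was recovered. The gates were low and high (top ~1%), set on anti-HA fluorescence for expression and streptavidin fluorescence for reagent binding. Before sorting, galactose-induced (36–48 hours) yeast display cells were stained for 1 hour at 4 °C with 10% biotinylated, detergent-solubilized Sf9 membrane reagent.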

Sequence | polyreactivity (PSR sort gate)
QVQLVDSGGGLVQAGGSLRLSCAASGSIFFIYAMGWYRQATGKERELVATITSGGSTYYADSVKGRFTISRDNAKNTVYLQMNSLKPEDTAVYYCAKYFVYVGYGRYDYWGQCTQVTVSS | low polyreactivity
QVQLVESGGGLVQAGGSLRLSCAASGLIYSYYVMGWNRQAPGKERELVPAINESGGRTYYADSVKGRFTISRDNAKNTVYLEMNSLKPEDTAVYYCAASVLNKIQGYRDYYCGQGTQVTVSS | low polyreactivity
QVQLVESGGGLVLAGGRLRLSFAASGFIFYQYAKAWYRQATGKEWEFVAAISRNGGSTYYADSVKGRFTISRDNATNTVYLQMNSLKPEDTAVYYCNRDCGGLWSENGYWGQGPQVTVSS | high polyreactivity
QVQLVESGGGLVQAGGSLRLSCAASGFTFLGYAMGWYRQAPGKERELVAAITRGGSTYYADSVKGRFTISRDNAKNTVYLQMNSLKPEDTAVYYCAARARAGGYGYWGQGTQVTVSS | high polyreactivity
QVQLVESGGGLVQAGGSLRLSCAASGRTFRIYAVGWYIQAPGKERELVARITWSGGRTYYADSVKGRFTISRDNAKNTVYLQMNSLKPEDTAVYYCNAGGSWEFDYWGQGTQVTVSS | low polyreactivity
QVQLVESGGGLVQAGGSLRLSCADSGFTFRYNAIGSYRQAPGKERELVARISSTGGGTSYADSVKGRFTISRDNAKNTVYLQMNSLKPEDTAVYYCNKRSWGYGRGLPDSDYWGQGTQVTVSS | low polyreactivity
QVQLVESGGGLVQAGGSLRLSCAASGSTFISNTMGWYRQAPGKERELVAAITRTGGRTYYADSVKGRFTISRDNAKNTVYLQMNSLKPEDTAVYYCARYGGYWSLKYDYWGQGTQVTVSS | high polyreactivity
QVQLVESGGGLVQAGGSLRLSCAASGRISFYYAMGWYRQAPGKERELVATISSSGGSTHYADSVKGRFTISRDNAKNTVYLQMNSLKPEDTAVYYCARDDSDRIWLEQSGYWGQGTQVTVSS | low polyreactivity
QVQLVESGGGLVQAGGSLRLSCAASGFTFSGYDMGWYRQAPGKERELVAGISSVDHTYYADSVKGRFTISRDNAKNTVYLQMNSLKPEDTAVYYCAATLWPYYYVEYDYWGQGTEVTVSS | low polyreactivity
QVQLVESGGGLVQAGGSLRLSCAASGRIFVGNAMGWYRQAPGKERELVAAITRSGSRTYYADSVKGRFTISRDNAKNTVYLQMISLKPEDTAVYYCNAPIRTWPGYDYWGQGTQVTVSS | high polyreactivity
QVQLVESGGGLVQAGGSLRLSCAASGSIFERNAMGWYRQAPGKERELVAAISWSSARTYYADSVKGRFTISRDNAKNTVYLQMNSLKPEDTAVYYCAARVWNEGVRYDYWGQGTQVTVSS | high polyreactivity
QVQLVESGRGLVQAGVSLRLSCAASGRIFTYYAMGWYRQAPGKERELVAAITTRGGRTRYADSVKGRFTISRDNAKITVYLQMNSLKPEDTAVYYCARGHSSVGPQYDYWGQGTQVTVSS | high polyreactivity
QVQLVESGGGLVQAGGSLRLSCAASGIIFWRYAMGWYRQAPGKERELVASISWSGGSTSYADSVKGRFTISRDNAKNTVYLQMNSLKPEDTSVYYCAAVYYYRRRYYYWGQGTQVTVSS | high polyreactivity
QVQLVESGGGLVPAGGSRRLSCAASGFTFGGYAMGWYRQAPGKETELVAAMRSSGDTTYDADSVKGRFTISRDNAKKTVNLQMNSLKPEDTAVYYCAARWGTYWGGLGGDPDIDYDDWGQGTQVTVSS | low polyreactivity
QVLLVESGGGLVQAGGSLRLSCSASGITFEYYAMGWYRQAPGKERELVADIDTGGSTNYADSVKGRFTISRDNAKNTVYLQMNSLKPEDTAVYYCAADWSWWDAEDYHFEYDYWGQGTQVTVSS | low polyreactivity
QVQLVQTGRGLVQAGGSLRLICAASGIIFKYYGMGWYRQAPGKERELVAAITDRGGSTYYADSVKGRFTISRDHAKNTVYLQMNSLKPEDTAVYYCSAVPSSGKSGFRGGYWGQVTQVTVSS | high polyreactivity
QVQLVESRGGLVQAGGSLRLSCDASGIIFVKYAMGWYRQAPGKERELVAAITSGGSTYYADSVKVRFTISRDNAKNTVYLQMNSLKPEDTAVYYCNADSWFLYYFTINGYWGQGTQVTVSS | high polyreactivity
QVQLVESGGGLDQAGGSLRLSCAASGIIFSSYAMGWYRQAPGKERELVAAISYSGGSTYYADSVKGRFTISRDNAKNTVYLQMNSLKPEDTAVYYCAAQGYSPGGYDYWGQGTQVTVSS | low polyreactivity
QVQLVESGAGLVQAGGSLRLSCAASGRIFGYYAMGWYRQAPGKERELVAAITRGGSTYYADSVKGRFTISRDNAKHTVYLQMNSLKPEDTAVYFCAANISGLVKYENDYWGQGTQLTVSS | low polyreactivity
QVQLVESGGGLVQAGGSLRLSCAASGSTFFSYAMGWYRQAPGKERDLVAAITSNGGTTHYADSVKGRFTISRDNAKNTVYLQMNSLKPEDTADYYCAKAQGHVRGSRGLQGGRYDYWGQGTQVTVSS | low polyreactivity
QVQLVESGGGLVQAGGSLRLSCAASGNTYYGNTKGWYRQAPGKERELVAAITSGGSTYYADSVKGRFTISRDNAKNTVYLQMNSLKPEDTAVYYCNVVFYEYSSVSYDYWGQGTQVTVSS | high polyreactivity
QVQLVESGGGLVQAGGSLRLSCAASGSISGYNAMGWYRQAPGKESELVAVITTDGSTNYADSEKGRFTISRDNAKNTVYLQMNSLKPEDTAVYYCNTDDGWRLLWEYDYWGQGTQVTVSS | low polyreactivity

Sequence | polyreactivity (PSR sort gate)
QVQLVESGGGLVQAGGSLRLSCAASGRILWQYAMGWYRPAPGKERELVAAITSSGADTYYADSVKGRFTISRDNAKNTVYLQMNSLKPEDTAVYYCNADASAVVYKFGFGYWGQGTQVTVSS | low polyreactivity
QVQLVESGGGLVQAGGSLRLSCAASGFIFASYAMGWYRQAPGKERELVAAISSSGGRTYYADSVKGRFTISRDNAKNTVYLQMNSLKPEDTAVYYCAADWRVTYDYWGQGTQVTVSS | high polyreactivity
QVQLVESGGGLVQAGGSLRLSCAASGSIFYKYTMGWYRQAPGKERELVAAITRSGGSTYYADSVKGRFTISRDNAKNTVYLQMNSLKPEDTAVYYCAAERASFRYQDYYIYDYWGQGTQVTVSS | high polyreactivity
QVQLVESGGGLVQAGGSLRLSCAASGFTFYQYAMGWYRQAPGKERELVASISWSGGRTYYADSVKGRFTISRDNAKKTVYFQKNSLKPEDTAVYYCAARAYRIAGYDYWGQGTQVTVSS | high polyreactivity
QVQLVESGGGLVQAGGRLRLSCAASGSIFDIYAMGWYRQAPGKERELVASIRRRGGSTYYADSVKGRFTISRDNAKNTVYLQKNSLKPEDTAVYYSNARRVWLRTTGTNWPERGYWGQGTQVTVSS | high polyreactivity
QVQLVESGGGLVQAGGSHRLSCAASGRIFGCYTMGWYRQAPAKERELVAGITRRGGRTYYADSVKGRFTISRDTAKYTVYLQMNSLKPEDTAVYYCAVRSGVNFYYWGHGTQVTVSS | high polyreactivity
QVQLVESGGGLVQAGGSLRLSCAASGFTFYYYAMGWYRQAPGKERELVASISWRGGSTYYADSVKGRFTISRDNAKNTVYLQMNSLKPEDTAVFYCAAQKRGSPGYRRDYWGQGTQVTVSS | high polyreactivity
QVQLVESGGGLVQAGGSLRLSCAASGIIFYDYAMGWYRQAPGKERELVAAISSSGGRTYYADSVKGRFTISRDNAKNTVYLQMNSLNPEDTAFYYCATVSSIYRVRSTSIRYNYWGQGTQVTVSS | high polyreactivity
QVQLVESGGGLVQAGGSLRLSCAASGRTFTSNAMRWYRQEPGNERELVAAISNRGTRTYYADSVKGRFTISRDNAKNTVYLQMHILKPEETAVYYCAASERDQRFKHYYWGLGTQVTVSS | high polyreactivity
QDQLVESGGGLVQAGGSLRLSCAASGFTFNANAMGWYRQAPGKERELVAAITRSGGRTYYADSVKGRFTISRDNAKNTVYLQMNSLKPEDTAVYYCANLVTNGRYDSWGQGTQVTVSS | high polyreactivity
QVQLVESGGGLVQAGGSLRLSCAASGITFSGNAMGWYRPATGKERELVAGISRRGGSTYYADSVKGRFTISRDNAKNTVYLEMNSLKPEDTAVYYCARQFRRYYYAGYRYDYWGQGTQVTVSS | high polyreactivity
QVHLQDSGGGLVQAGGSLRLSCAASCYISDVNDMGWYRQAPGKEREFVAGIGYGGITNYADSVKGRFTISRDNAQNTVYQHMNSLKPKDTAVYNCAVHWGPDSGLYYWGQGTQVTVSS | high polyreactivity
QVQLVESGGGLVQAGGSLRLSCAASGSIFFRYAMGWYRQAPGKERELVATIRSSGGRTHYADSVKGRFTISRDNAKNTVYLQMHSLKPEDTAVYYCHYGVYQYPQDYDYWGQGTQVTVSS | low polyreactivity
RVQLVESGGGLVQAGGSLRLSCAASGITFGRNAMGWYRQAPGKERELVAAISRGGSTNYADSVKGRFTISRDNAKNTVYLQMNSLKPEDTAVYYCNARSFGPTESRYDYWGQGTQVTVSS | high polyreactivity
QVQLVESGGGLVQAGGSLRLSCAASGFIFSVNTMGSYRQAPGKERELVAAISGSGGSTYYADSVKGRFTISRDNAKNTVYLQMNSLKPEDTAVYYCAARYTVTYDYWGQGTQVTVSS | high polyreactivity
QVQLVESGGGLVQAGGSLRLSCAASGRIFQIYAMGWYRQAPGKERELVAAISNRGGSTYYADSVKGRFTISRDNAKNTVYLQMNSLKPEDTAVYYCNATTGYGGYNYWGQGTQVTVSS | low polyreactivity
QVQLVESGGGLVQAGGSLRLSCAASGSIFFSYAMGWYRQAPGKEREFVAAINSDDASTYADSVKGRFTISRDNAKNTVYLQMNSLKPEDTAVYYCAASFLWSWYDYWGQGTQVTVSS | low polyreactivity
QVQLVESGGGLVQAGGSLRLSCAASGSIARNAMGWYRQAPGKERELVATISSGGGTYYADSVKGRFTISRDNAKNTVYLQMHSLKPEDTAVYYCAADGWEVPWPAIWDSLYEYWGQGTQVTVSS | high polyreactivity
QVQLVESGGGLVQAGGSLRLSCAASGRIFVQYDMGWYRQAPGKERELVAAINDSGDITYYADSVKGRFTISRDNAKNTVYLQMNSLRPEDTAVYYCAASAAYYGFYKSVTYDYWGQGTQVTVSS | low polyreactivity
QVQLVESGGGLVQAGGSLRLSCAASGSILGIYGMGWYRQSRGKERELVAAISYSGGSTYYADSVKGRFSISRDNAKNTVYLQMNSLKPEDTAVYYCAADLTRGVSYYVDFYYWGQGTQVTVSS | low polyreactivity
QVQLVESGGGLVQAGGSLRLSCAASGRIFYFYAMGWYRQAPGKEREFVATISYTGGSRYYSDSVKGRFTISRDIAKNTVYLQMNSLKPEDTAVYYCAVRGWYPGFRYDYWGQGTQVTVSS | low polyreactivity
